Measured values from patent publication US7629323B2, “Manipulation of neuronal ion channels” (Northwestern University, priority 2003, dated 2009).
Blank lines part the entries; values can stand above or below the molecule they belong to.

How the values were obtained:
Kv3.4 mRNA = assay: siRNA suppression of Kv3.4 mRNA in HEK293/Kv3.4 cells, real-time quantitative PCR; type: cell-based, rat; conditions: normalized to transfection efficiency (60%)
Description: For example, mammalian cells expressing the potassium channel were tested with siRNA vectors. HEK 293/Kv3.4a cells were generated by stable transfection with a linearized form of pcDNA3/Kv3.4a (Baranauskas et al., Nat Neurosci., 6:258 (2003)), and geneticin selection of a single clone. Kv3.4 expression was confirmed by quantitative PCR and Western blotting. Four target sequences were chosen (#1, #2, #3, and #4, described in more detail below). HEK293/Kv3.4 cells were transfected with these siRNA. To monitor transfection efficiency fluorescein labeled luciferase GL2-F1 siRNA (Dharmacon) was used. In transfected cells, labeled duplexes are detectable as discrete punctate cytoplasmic dots (Holen et al., Nucleic Acids Res., 30:1757 (2002)). Transfection efficiency was 60%, probably, due to high passage number.
Real-time quantitative PCR employing SYBR green fluorescence detection was used to measure Kv3.4 cDNA abundance. As a control for the non-specific effects of siRNA duplexes, siRNA targeting Kv3.1 was used. The differences in the amount of extracted RNA were taken into account by normalization to β-actin. Variability in the amplification during PCR reactions was estimated by running five PCR reactions for the same cDNA sample. […]

[1] = biological target: Kv3.4 protein (native, rat brain membranes / fast-spiking neurons) (rat) (UniProt Q63734); assay: cell-based or functional assay
[2] = biological target: T1, Kv3.4a/Kv3.1b heteromeric channels (Rattus norvegicus, UniProt P25122+Q63734); type: cell-based
T1 construct: expressed in transfected cells; host or cells: HEK293
T1 sequence (Q63734 1-625): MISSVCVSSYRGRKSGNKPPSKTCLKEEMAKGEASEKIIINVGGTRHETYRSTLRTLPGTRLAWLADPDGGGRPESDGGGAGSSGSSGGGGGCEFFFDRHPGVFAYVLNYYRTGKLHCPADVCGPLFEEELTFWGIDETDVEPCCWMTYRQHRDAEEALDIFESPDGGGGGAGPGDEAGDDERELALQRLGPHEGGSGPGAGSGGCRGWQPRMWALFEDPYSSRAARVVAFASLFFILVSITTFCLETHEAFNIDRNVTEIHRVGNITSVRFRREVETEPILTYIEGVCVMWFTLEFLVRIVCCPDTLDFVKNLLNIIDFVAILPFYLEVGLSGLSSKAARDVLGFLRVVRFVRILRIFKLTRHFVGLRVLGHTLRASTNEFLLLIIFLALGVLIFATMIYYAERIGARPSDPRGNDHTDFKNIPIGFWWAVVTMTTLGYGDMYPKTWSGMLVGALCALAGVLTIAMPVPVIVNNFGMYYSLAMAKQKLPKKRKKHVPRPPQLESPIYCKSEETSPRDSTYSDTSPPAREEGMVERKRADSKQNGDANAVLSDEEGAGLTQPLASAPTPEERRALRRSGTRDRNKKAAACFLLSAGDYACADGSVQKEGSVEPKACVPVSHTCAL
T1 sequence (P25122 1-585): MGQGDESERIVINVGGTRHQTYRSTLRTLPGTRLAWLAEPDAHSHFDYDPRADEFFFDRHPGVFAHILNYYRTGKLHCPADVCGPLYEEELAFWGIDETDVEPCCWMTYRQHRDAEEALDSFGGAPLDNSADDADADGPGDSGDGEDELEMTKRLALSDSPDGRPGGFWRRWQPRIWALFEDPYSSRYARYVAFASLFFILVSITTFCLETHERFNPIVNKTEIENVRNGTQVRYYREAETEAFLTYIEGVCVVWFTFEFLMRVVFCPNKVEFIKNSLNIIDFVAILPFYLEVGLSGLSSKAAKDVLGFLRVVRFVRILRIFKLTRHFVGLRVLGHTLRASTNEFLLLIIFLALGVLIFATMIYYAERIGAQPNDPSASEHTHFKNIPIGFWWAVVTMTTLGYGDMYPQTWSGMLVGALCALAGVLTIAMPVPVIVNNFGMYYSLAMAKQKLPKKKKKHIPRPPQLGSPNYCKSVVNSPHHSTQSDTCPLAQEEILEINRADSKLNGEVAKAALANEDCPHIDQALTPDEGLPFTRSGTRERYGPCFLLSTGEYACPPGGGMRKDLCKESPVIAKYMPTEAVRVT
Source text: Electrophysiology. Whole-cell recordings used standard techniques^27,28. The internal solution consisted of (in mM): 30-90 K2SO4, 0-60 N-methyl-D-glucamine, 2 MgCl2, 40 HEPES, 5 EGTA, 12 phosphocreatine, 2 Na2ATP, 0.2 Na3GTP, and 0.1 leupeptin, pH 7.2 with H2SO4 (osmolarity 260-270 mOsm/l). The external solution consisted of (in mM): 140 Na-isethionate, 2 KCl, 4 MgCl2, 10 HEPES, 12 glucose and 0.001 TTX, pH 7.35 with NaOH (osmolarity 295-305 mOsm/l). The internal solution for current clamp recordings consisted of (in mM) 110 potassium methylsulphate, 2 MgCl2, 40 HEPES, 5 EGTA, 12 phosphocreatine, 2 Na2ATP, 0.2 Na3GTP, and 0.1 leupeptin, pH 7.2 with H2SO4 (osmolarity 260-270 mOsm/l). In the case of current clamp recordings, TTX was omitted from external solution. For the recordings in the presence of Ca^+2 ions EGTA was omitted from internal solution and 4 mM of MgCl2 was substituted by 2 mM of CaCl2 and 2 mM of MgCl2. […] Recordings were obtained with Axon Instruments 200 patch-clamp amplifier and controlled and monitored with a PC running pClamp software (version 7.0) (Axon Instruments Inc., Union City, Calif.). […] After seal rupture, series resistance (2-10 MΩ) was compensated (75-90%) and periodically monitored. […]
Single cell RT-PCR (scRT-PCR). […] In the case of co-transfection with Kv3.4a and Kv3.1b cDNA, single cell RT-PCR was used to confirm the presence of both mRNAs in the recorded cell. […]

Kv3.1b (rat) = Kv3.1b (rat) (UniProt P25122); assay: cell-based or functional assay

Molecule: duplex #4: 21-nt double-stranded RNA targeting rat Kv3.4 site D, GGCAGTGTTGAGCCGAAAC (SEQ ID NO:4), position 1825-1843 (second strand not cited, further chemistry not given here; listed as Rattus rattus)
estimated suppression of the levels of Kv3.4 mRNA in the transfected cells (Kv3.4 mRNA): 50%

Molecule: BDS-I (from UniProt P11494 1-43) (peptide)
duration of spikes in FS neurons [1]: 53%

Molecule: CC[N+](CC)(CC)CC [TEA, tetraethylammonium]
block of K+ currents in Kv3.4a/Kv3.1b co-transfected HEK293 cells [2]: blocked

fast inactivation time constant of K+ currents in co-transfected HEK293 cells (Kv3.1b (rat)): 38 ms | mean burst duration (long bursts), single channel recording of co-transfected HEK293 cells (Kv3.1b (rat)): 250 ms | mean burst duration (short bursts), single channel recording of co-transfected HEK293 cells (Kv3.1b (rat)): 16.2 ms
B1: Kv3.4a (protein, rat, UniProt Q63734 1-625, looked up)
chain: T1 sequence (Q63734 1-625)
